# Laboratory results published in patent US20260146107A1 (ALLIGATOR BIOSCIENCE, published 2026).
# T1: human CEACAM5, recombinant (R&D Systems #4128-CM-050) (human, UniProt P06731 35-685)
# T1 construct: Bought; coated in ELISA and used as monomeric analyte in Octet; also called hCEACAM-5; Human CEACAM5-His; not shown: His tag
# T1 sequence (looked up): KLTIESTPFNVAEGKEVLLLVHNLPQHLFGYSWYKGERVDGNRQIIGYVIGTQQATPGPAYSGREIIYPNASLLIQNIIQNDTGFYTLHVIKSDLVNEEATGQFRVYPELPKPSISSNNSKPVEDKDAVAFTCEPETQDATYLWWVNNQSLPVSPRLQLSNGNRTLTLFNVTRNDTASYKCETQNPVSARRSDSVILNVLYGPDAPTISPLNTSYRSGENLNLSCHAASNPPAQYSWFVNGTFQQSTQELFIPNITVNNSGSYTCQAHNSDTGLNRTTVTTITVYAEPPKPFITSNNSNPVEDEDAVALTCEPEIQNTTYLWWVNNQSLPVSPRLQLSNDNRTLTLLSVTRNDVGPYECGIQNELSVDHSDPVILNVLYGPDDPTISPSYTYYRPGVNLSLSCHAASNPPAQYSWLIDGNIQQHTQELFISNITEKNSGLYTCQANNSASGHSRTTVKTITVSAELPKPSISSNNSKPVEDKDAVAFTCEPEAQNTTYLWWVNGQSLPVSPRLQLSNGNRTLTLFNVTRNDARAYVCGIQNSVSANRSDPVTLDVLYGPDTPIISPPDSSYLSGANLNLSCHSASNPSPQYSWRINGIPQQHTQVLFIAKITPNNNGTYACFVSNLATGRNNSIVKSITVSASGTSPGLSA
# T2: human CEACAM1, recombinant (R&D Systems #2244-CM-050) (human, UniProt P13688 35-428)
# T2 construct: also called hCEACAM-1
# T2 sequence (looked up): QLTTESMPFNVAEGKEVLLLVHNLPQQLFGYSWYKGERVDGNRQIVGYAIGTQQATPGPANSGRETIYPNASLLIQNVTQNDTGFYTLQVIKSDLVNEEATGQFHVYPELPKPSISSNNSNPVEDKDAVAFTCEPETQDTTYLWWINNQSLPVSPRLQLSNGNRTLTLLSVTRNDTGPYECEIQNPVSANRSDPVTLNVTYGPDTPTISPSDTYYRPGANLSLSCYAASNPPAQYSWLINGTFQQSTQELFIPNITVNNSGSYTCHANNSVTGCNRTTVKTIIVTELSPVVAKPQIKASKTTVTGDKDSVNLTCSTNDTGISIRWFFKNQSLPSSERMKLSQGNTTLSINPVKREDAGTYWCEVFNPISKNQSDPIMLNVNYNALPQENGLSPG
# Assays:
# [1] = target: T1, human CEACAM5, recombinant (R&D Systems …); experiment: ELISA, antigen coated at 0.5 µg/mL, IgG1 antibody at 10 µg/ml, anti-human kappa-HRP, luminescence
# Procedure: (§1) 96-well plates were coated with 0.5 μg/mL antigen, hCEACAM-5 (4128-CM-050, R&D Systems), hCEACAM-1 (2244-CM-050, R&D Systems), hCEACAM-6(3934-CM-050, R&D Systems) or CEACAM-8 (9639-CM-050, R&D Systems) in PBS over night at 4° C. After washing with PBS/0.05% Tween 20 (PBST), the plates were blocked with PBST, 2% BSA for at least 30 minutes at room temperature before a second round of washing. […] After washing, plates were incubated with 50 μl detection antibody (0.5 μg/ml HRP conjugated goat anti human-kappa light chain, #STAR127P, AbD Serotec). Finally, a final round of washing was performed and bound complexes detected using SuperSignal Pico Luminescent as substrate and luminescence signals were measured using Fluostar Optima.
# [2] = target: T2, human CEACAM1, recombinant (R&D Systems …); experiment: as above
# Procedure: as §1
# [3] = target: T1, human CEACAM5, recombinant (R&D Systems …); experiment: ELISA, antigen coated at 0.5 µg/mL, bsAb titrated, anti-human kappa-HRP, luminescence
# Procedure: 96-well plates were coated with 0.5 μg/mL antigen, hCEACAM-1 (2244-CM-050, R&D Systems), hCEACAM-5 (4128-CM-050, R&D Systems), hCEACAM-6 (3934-CM-050, R&D Systems) or CEACAM-8 (9639-CM-050, R&D Systems) in PBS over night at 4° C. After washing in PBS/0.05% Tween 20 (PBST), the plates were blocked with PBST, 2% BSA for at least 30 minutes at room temperature before a second round of washing. RUBY bsAbs, diluted in PBST, 0.5% BSA, were then added and allowed to bind for at least 1 hour at room temperature. […] Finally, a final round of washing was performed and bound complexes detected using SuperSignal Pico Luminescent as substrate and luminescence signals were measured using Fluostar Optima.
# [4] = target: T3, biotinylated human CD40-mouse Fc (Ancell #504-030) (human, UniProt P25942 21-193, biotinylated (site not stated)); experiment: Octet BLI, captured CD40mFc-biotin, bsAb in solution, 1:1 fit
# T3 construct: Bought; also called hCD40-muIg; CD40mFc-biotin; not shown: mouse Ig Fc
# Procedure: Kinetic measurements were performed in the Octet RED96 platform using several different setups. […] Monomeric human CD40-His-Avi tag (Acro Biosystems #CD0-H5228), monomeric Human CEACAM5-His (R&D Systems #4128-CM-050) or monomeric Cynomolgus CEACAM5-His (Sino Biological #90891-C08H) were ½ serially diluted in 1× kinetic buffer (Sartorius) starting at 500 nM or 100 nM. […] Binding kinetics was studied in 1× kinetic buffer where association was allowed for 100 sec, 300 sec or 600 sec followed by dissociation for 100 sec, 300 sec or 3600 sec. Sensor tips were regenerated with 10 mM Glycine pH 1.7. Data generated were referenced by subtracting blank or parallel buffer blank, the baseline was aligned to the y-axis, inter-step correction by alignment against dissociation was performed and the data was smoothed by Savitzky-Golay filter in the data analysis software (v9.0.0.14). The processed data was fitted using a 1:1 Langmuir binding model with R² or X² as a measurement of fitting accuracy.
# TABLE 12 Summary of kinetic profiles measured in Octet. Bispecific antibodies in solution (25-0.8 nM, 10-2 or 5-0.7 nM.) interacting with captured CD40mFc-biotin. Association was measured for 300 sec or 600 sec and dissociation was measured for 300 sec or 3600 sec
# T3 sequence (P25942 21-193): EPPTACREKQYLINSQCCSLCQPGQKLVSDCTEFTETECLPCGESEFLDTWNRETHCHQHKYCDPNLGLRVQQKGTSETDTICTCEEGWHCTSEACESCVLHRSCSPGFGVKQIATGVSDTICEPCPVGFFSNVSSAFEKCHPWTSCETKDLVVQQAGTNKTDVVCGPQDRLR
binding result [1],binding result [2],EC50 (read off the curve) [3],Kd [4],koff [4],kon [4],Binder
binds,binds,,,,,"AC_05083 (antibody, V domains shown) VH: not shown VL: DIQMTQSPSSLSASVGDRVTITCRASQSIRGYLNWYQQKPGKAPKLLIYAASSLQSGVPSRFSGSGSGTDFTLTISSLQPEDFATYYCQQPSYPSLFTFGQGTKLEIK"
,,~2 nM,,,,"Multi38 (bispecific antibody, Optimised RUBY format, CD40xCEACAM5 (Fab8); also called Muli38) heavy 1: not shown light: not shown heavy 2: EVQLLESGGGLVQPGGSLRLSCAASGFTFGDHAMSWVREAPGKGLEWVSAISGYGHSTGYADSVKGRFTISRDNSKNTLYLQMNSLRAEDTAVYYCARNHYRVGLDYWGQGTLVTVSSASTKGPSVFPLAPSSKSTSGGTAALGCLVKDYFPEPVTVSWNSGALTSGVHTFPAVLQSSGLYSLTSVVEVPSSSLGTQTYICNVNHKPSNTKVDKKVEPKSC"
,,,8.5 nM,0.0046 s⁻¹,540000 M⁻¹ s⁻¹,"AC_05300 (bispecific antibody, as AC_05293) heavy 1: not shown light: ELVMTQSPSSLTVTAGEKVTMSCKSSQSLLNSGNQKNYLTWYQEKPGQPPKLLIYWASTRESGVPDRFTGSGSGTDFTLTISSVQAEDLAVYYCQNDYSYPLTFGAGTKLEIKRTVAAPSVFIFPPSDEQLKSGTASVVCYLNNFYPREAKVQWKVDNALQSGNSQESVTEQDSKDSTYSLWSTLTLSKADYEKHKVYACEVTHQGLSSPVTKSFNRGEC heavy 2: EVQLLESGGGLVQPGGSLRLSCAASGFTFSSYAMSWVREAPGKGLEWVSGIGSYGGGTYYADSVKGRFTISRDNSKNTLYLQMNSLRAEDTAVYYCARYVNFGMDYWGQGTLVTVSSASTKGPSVFPLAPSSKSTSGGTAALGCLVKDYFPEPVTVSWNSGALTSGVHTFPAVLQSSGLYSLSSVVEVPSSSLGTQTYICNVNHKPSNTKVDKKVEPKSC"
,,,0.45 nM,1.6e-05 s⁻¹,35000 M⁻¹ s⁻¹,"AC_05330 (bispecific antibody, as AC_05293) heavy 1: not shown light: not shown heavy 2: EVQLLESGGGLVQPGGSLRLSCAASGFTFSSYAMSWVREAPGKGLEWVSAISGSGGSTYYADSVKGRFTISRDNSKNTLYLQMNSLRAEDTAVYYCARYYGGYYSAWMDYWGQGTLVTVSSASTKGPSVFPLAPSSKSTSGGTAALGCLVKDYFPEPVTVSWNSGALTSGVHTFPAVLQSSGLYSLSSVVEVPSSSLGTQTYICNVNHKPSNTKVDKKVEPKSC"
binds,no binding (tested: 10 µg/ml),,,,,"AC_05096 (antibody, human IgG1, kappa, V domains shown) VH: EVQLLESGGGLVQPGGSLRLSCAASGFTFSSSYMGWVRQAPGKGLEWVSSIGSGSYSTSYADSVKGRFTISRDNSKNTLYLQMNSLRAEDTAVYYCARYPSVPFRPHLDYWGQGTLVTVSS VL: DIQMTQSPSSLSASVGDRVTITCRASQSISSYLNWYQQKPGKAPKLLIYAASSLQSGVPSRFSGSGSGTDFTLTISSLQPEDFATYYCQQAGNPHTFGQGTKLEIKR"
no binding (tested: 10 µg/ml),no binding (tested: 10 µg/ml),,,,,"AC_05098 (antibody, V domains shown) VH: EVQLLESGGGLVQPGGSLRLSCAASGFTFGSYYMSWVRQAPGKGLEWVSGISGYGYYTGYADSVKGRFTISRDNSKNTLYLQMNSLRAEDTAVYYCARNGYGVIDYWGQGTLVTVSS VL: DIQMTQSPSSLSASVGDRVTITCRASQSIRDYLNWYQQKPGKAPKLLIYAASSLQSGVPSRFSGSGSGTDFTLTISSLQPEDFATYYCQQGTFPFTFGQGTKLEIK"
no binding (tested: 10 µg/ml),no binding (tested: 10 µg/ml),,,,,"AC_05085 (antibody, V domains shown) VH: EVQLLESGGGLVQPGGSLRLSCAASGFTFGSYYMYWVRQAPGKGLEWVSSIGGYSGSTYYADSVKGRFTISRDNSKNTLYLQMNSLRAEDTAVYYCARNTPFPGGSGLDYWGQGTLVTVSS VL: DIQMTQSPSSLSASVGDRVTITCRASQSISSYLNWYQQKPGKAPKLLIYAASSLQSGVPSRFSGSGSGTDFTLTISSLQPEDFATYYCQQAGNPHTFGQGTKLEIK"
no binding (tested: 10 µg/ml),no binding (tested: 10 µg/ml),,,,,"AC_05100 (antibody, V domains shown) VH: not shown VL: DIQMTQSPSSLSASVGDRVTITCRASQSISSYLNWYQQKPGKAPKLLIYAASSLQSGVPSRFSGSGSGTDFTLTISSLQPEDFATYYCQQAGNPHTFGQGTKLEIK"
no binding (tested: 10 µg/ml),no binding (tested: 10 µg/ml),,,,,"AC_05082 (antibody, V domains shown) VH: not shown VL: DIQMTQSPSSLSASVGDRVTITCRASQSISSYLNWYQQKPGKAPKLLIYAASSLQSGVPSRFSGSGSGTDFTLTISSLQPEDFATYYCQQAGNPHTFGQGTKLEIK"
no binding (tested: 10 µg/ml),no binding (tested: 10 µg/ml),,,,,"AC_05084 (antibody, V domains shown) VH: not shown VL: DIQMTQSPSSLSASVGDRVTITCRASQSISSYLNWYQQKPGKAPKLLIYAASSLQSGVPSRFSGSGSGTDFTLTISSLQPEDFATYYCQQVDGLFTFGQGTKLEIK"
,,,76 nM,0.00062 s⁻¹,8300 M⁻¹ s⁻¹,AC_05293 (bispecific antibody) heavy 1: not shown light: DIQMTQSPSSLSASVGDRVTITCRASQSISSYLNWYQEKPGKAPKLLIYAASSLQSGVPSRFSGSGSGTDFTLTISSLQPEDFATYYCQQYGRNPPTFGQGTKLEIKRTVAAPSVFIFPPSDEQLKSGTASVVCYLNNFYPREAKVQWKVDNALQSGNSQESVTEQDSKDSTYSLWSTLTLSKADYEKHKVYACEVTHQGLSSPVTKSFNRGEC heavy 2: EVQLLEQSGAELVRPGTSVKISCKASGYAFTNYWLGWVKERPGHGLEWIGDIFPGSGNIHYNEKFKGKATLTADKSSSTAYMQLSSLTFEDSAVYFCARLRNWDEPMDYWGQGTTVTVSSASTKGPSVFPLAPSSKSTSGGTAALGCLVKDYFPEPVTVSWNSGALTSGVHTFPAVLQSSGLYSLSSVVEVPSSSLGTQTYICNVNHKPSNTKVDKKVEPKSC
